Assay results: patent US20240400703A1 (Genmab, published 2024)

Experiments:
[1] = biological target: T1, cynomolgus monkey OX40 expressed on HEK293F cells (cynomolgus monkey (Macaca fascicularis), UniProt P43489 29-277 (human entry)); assay: flow cytometry, OX40-transfected HEK293F cells, gMFI (PE)
T1 construct: full-length entry
T1 chain: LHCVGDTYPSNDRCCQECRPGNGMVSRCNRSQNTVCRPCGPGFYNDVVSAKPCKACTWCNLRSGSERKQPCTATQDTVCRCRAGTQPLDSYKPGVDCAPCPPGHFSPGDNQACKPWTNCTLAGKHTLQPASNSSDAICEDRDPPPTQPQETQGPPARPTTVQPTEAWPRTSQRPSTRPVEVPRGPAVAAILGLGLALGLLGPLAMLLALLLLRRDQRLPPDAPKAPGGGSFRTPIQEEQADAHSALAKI
Method: (§1) Transfected cells were seeded in 96-well plates (30,000 cells/well; ThermoFisher, cat. no. 163320) for sequential incubations, with washing steps in between using fluorescence-activated cell sorting (FACS) buffer 1 (phosphate buffered saline [PBS; Lonza, cat. no. BE17-517Q] supplemented with 0.1% bovine serum albumin [BSA; Roche, cat. no. 10735086001] and 0.02% sodium azide [NaN₃; Bio-World, cat. no. 41920044-3]) supplemented with 2 mM ethylenediaminetetraacetic acid (EDTA; Sigma-Aldrich, cat. no. 03690). […] Cells were then washed using EDTA-supplemented FACS buffer 1, resuspended in a 30 μL solution of viability marker ToPro-3 (Invitrogen, cat. no. T3605, diluted 1:10,000) in EDTA-supplemented FACS buffer 1, and subsequently analyzed on an iQue® 3 flow cytometer (Satorius). Data were analyzed using FlowJo software and were visualized using GraphPad Prism.

[2] = biological target: T2, human OX40 expressed on cells (human, UniProt P43489 29-277); assay: as above
T2 construct: also called CD134; TNFRSF4
T2 sequence: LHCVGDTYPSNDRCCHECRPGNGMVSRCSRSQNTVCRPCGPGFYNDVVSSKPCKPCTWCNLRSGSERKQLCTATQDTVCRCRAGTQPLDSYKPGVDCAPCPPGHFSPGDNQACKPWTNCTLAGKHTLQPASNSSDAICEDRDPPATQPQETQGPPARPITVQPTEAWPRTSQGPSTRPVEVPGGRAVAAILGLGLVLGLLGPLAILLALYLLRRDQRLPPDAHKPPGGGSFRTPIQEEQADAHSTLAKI
Method: as §1

B1: IgG1-CD134-003-HC6LC2-P329R-E345R (antibody)
heavy: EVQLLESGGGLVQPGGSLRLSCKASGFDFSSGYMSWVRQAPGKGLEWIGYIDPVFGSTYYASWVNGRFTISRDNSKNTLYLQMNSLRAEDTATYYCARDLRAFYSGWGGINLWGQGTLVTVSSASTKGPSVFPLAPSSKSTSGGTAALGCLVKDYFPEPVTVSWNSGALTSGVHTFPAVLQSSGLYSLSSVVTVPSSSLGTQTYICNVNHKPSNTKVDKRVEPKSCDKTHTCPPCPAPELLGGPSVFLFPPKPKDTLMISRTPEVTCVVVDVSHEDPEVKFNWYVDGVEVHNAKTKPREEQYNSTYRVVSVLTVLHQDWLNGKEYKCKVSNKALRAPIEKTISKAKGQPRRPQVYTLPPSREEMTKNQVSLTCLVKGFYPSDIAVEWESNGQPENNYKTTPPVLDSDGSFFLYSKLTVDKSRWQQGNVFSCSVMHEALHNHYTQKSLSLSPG
light: AAVLTQSPSSLSASVGDRVTITCQSSQIVVNNNFLSWYQQKPGKAPKLLIYDASNLASGVPDRFSGSGSGTDFTFTISSLQPEDIATYYCLGGYDDDAENAFGGGTKVEIKRTVAAPSVFIFPPSDEQLKSGTASVVCLLNNFYPREAKVQWKVDNALQSGNSQESVTEQDSKDSTYSLSSTLTLSKADYEKHKVYACEVTHQGLSSPVTKSFNRGEC
notes: humanized; human IgG1 with P329R and E345R (Eu numbering), kappa; also called IgG1-CD134-003-HC6LC2-RR
[1]
  EC50 (read off the curve): ~0.05 µg/mL
[2]
  EC50 (read off the curve): ~0.05 µg/mL
